Experimental data published in patent US20220315554A1 (3B PHARMACEUTICALS GMBH, published 2022).
Numbered stars: 1 amine (or outer) side, 2 acyl side, 3 side chain; on linkers, the order of the positions; unused ones are H or OH. Bridge positions count the residues as written; N and C are the ends. Ends that are not written are not given here. * marks the point of attachment. Ttds = 1,13-diamino-4,7,10-trioxatridecan-succinamic acid, NCCCOCCOCCOCCCNC(=O)CCC(=O)*; tMeBn(DOTA-AET) = Cys-Cys bridge (thioethers) carrying DOTA-AET; tMeBn(DOTA-PP) = Cys-Cys bridge (thioethers) carrying DOTA-PP; DOTA = O=C(O)CN1CCN(CC(=O)O)CCN(CC(=O)*)CCN(CC(=O)O)CC1; mXylylene = c1cc(C[*:1])cc(C[*:2])c1; 2Lut = Cys-Cys bridge (thioethers); 3Lut = Cys-Cys bridge (thioethers); Pentanesulfonyl = CCCCCS(=O)(=O)*; Hexanoyl = CCCCCC(=O)*

B1: Pentyl-SO2-[Cys(3MeBn)-Pro-Pro-Thr-Gln-Phe-Cys]-Asp-NH2 (peptide)
peptide: Pentanesulfonyl-CPPTQFCD-NH2
modifications: linker 1-7 via mXylylene
SMILES: CCCCCS(=O)(=O)N[C@H]1CSCc2cccc(c2)CSC[C@@H](C(=O)N[C@@H](CC(=O)O)C(N)=O)NC(=O)[C@H](Cc2ccccc2)NC(=O)[C@H](CCC(N)=O)NC(=O)[C@H]([C@@H](C)O)NC(=O)[C@@H]2CCCN2C(=O)[C@@H]2CCCN2C1=O
B2: Hex-[Cys(tMeBn(InDOTA-PP))-Pro-Pro-Thr-Gln-Phe-Cys]-Asp-NH2 (peptide)
peptide: Hexanoyl-CPPTQFCD-NH2
modifications: linker 1-7 via tMeBn(InDOTA-PP); also: In-DOTA complex
B3: Hex-[Cys(tMeBn(LuDOTA-PP))-Pro-Pro-Thr-Gln-Phe-Cys]-Asp-NH2 (peptide)
peptide: Hexanoyl-CPPTQFCD-NH2
modifications: linker 1-7 via tMeBn(LuDOTA-PP); also: Lu-DOTA complex
B4: Hex-[Cys(3MeBn)-Pro-Pro-Thr-Glu-Phe-Cys]-Asp-His-Phe-Arg-Asp-NH2 (peptide)
peptide: Hexanoyl-CPPTEFCDHFRD-NH2
modifications: linker 1-7 via mXylylene
SMILES: CCCCCC(=O)N[C@H]1CSCc2cccc(c2)CSC[C@@H](C(=O)N[C@@H](CC(=O)O)C(=O)N[C@@H](Cc2c[nH]cn2)C(=O)N[C@@H](Cc2ccccc2)C(=O)N[C@@H](CCCNC(=N)N)C(=O)N[C@@H](CC(=O)O)C(N)=O)NC(=O)[C@H](Cc2ccccc2)NC(=O)[C@H](CCC(=O)O)NC(=O)[C@H]([C@@H](C)O)NC(=O)[C@@H]2CCCN2C(=O)[C@@H]2CCCN2C1=O
B5: DOTA-Ttds-Leu-[Cys(3MeBn)-Pro-Pro-Thr-Glu-Phe-Cys]-Asp-His-Phe-Arg-Asp-NH2 (peptide)
peptide: {DOTA-Ttds}-LCPPTEFCDHFRD-NH2
modifications: linker 2-8 via mXylylene
B6: Hex-[Cys(tMeBn(DOTA-AET))-Pro-Pro-Thr-Gln-Phe-Cys]-Asp-OH (peptide)
peptide: Hexanoyl-CPPTQFCD-OH
modifications: linker 1-7 via tMeBn(DOTA-AET)
B7: Hex-[Cys(3MeBn)-Pro-Pro-Thr-Gln-Phe-Cys]-Asp-Ape-NH-DOTA' (peptide)
peptide: Hexanoyl-CPPTQFCD
modifications: linker 1-7 via mXylylene; not fully specified (C-terminus); printed as Hex-[Cys(3MeBn)-Pro-Pro-Thr-Gln-Phe-Cys]-Asp-Ape(DOTA)
B8: Pentyl-SO2-[Cys(tMeBn(DOTA-PP))-Pro-Pro-Thr-Gln-Phe-Cys]-Asp-NH2 (peptide)
peptide: Pentanesulfonyl-CPPTQFCD-NH2
modifications: linker 1-7 via tMeBn(DOTA-PP)
B9: Hex-[Cys(tMeBn(GaDOTA-PP))-Pro-Pro-Thr-Gln-Phe-Cys]-Asp-NH2 (peptide)
peptide: Hexanoyl-CPPTQFCD-NH2
modifications: linker 1-7 via tMeBn(GaDOTA-PP)
B10: Ac-[Cys(3MeBn)-Pro-Pro-Thr-Glu-Phe-Cys]-Asp-His-Phe-Arg-Asp-NH2 (peptide)
peptide: Ac-CPPTEFCDHFRD-NH2
modifications: linker 1-7 via mXylylene
SMILES: CC(=O)N[C@H]1CSCc2cccc(c2)CSC[C@@H](C(=O)N[C@@H](CC(=O)O)C(=O)N[C@@H](Cc2c[nH]cn2)C(=O)N[C@@H](Cc2ccccc2)C(=O)N[C@@H](CCCNC(=N)N)C(=O)N[C@@H](CC(=O)O)C(N)=O)NC(=O)[C@H](Cc2ccccc2)NC(=O)[C@H](CCC(=O)O)NC(=O)[C@H]([C@@H](C)O)NC(=O)[C@@H]2CCCN2C(=O)[C@@H]2CCCN2C1=O
B11: Hex-[Cys(3MeBn)-Pro-Pro-Thr-Gln-Phe-Cys]-Asp-NH2 (peptide)
peptide: Hexanoyl-CPPTQFCD-NH2
modifications: linker 1-7 via mXylylene
SMILES: CCCCCC(=O)N[C@H]1CSCc2cccc(c2)CSC[C@@H](C(=O)N[C@@H](CC(=O)O)C(N)=O)NC(=O)[C@H](Cc2ccccc2)NC(=O)[C@H](CCC(N)=O)NC(=O)[C@H]([C@@H](C)O)NC(=O)[C@@H]2CCCN2C(=O)[C@@H]2CCCN2C1=O
B12: Hex-[Cys(2Lut)-Pro-Pro-Thr-Gln-Phe-Cys]-Asp-NH2 (peptide)
peptide: Hexanoyl-CPPTQFCD-NH2
modifications: linker 1-7 via 2Lut
B13: Pentyl-SO2-[Cys(tMeBn(DOTA-AET))-Pro-Pro-Thr-Glu-Phe-Cys]-OH (peptide)
peptide: Pentanesulfonyl-CPPTEFC-OH
modifications: linker 1-7 via tMeBn(DOTA-AET)
B14: Hex-[Cys(tMeBn(EuDOTA-PP))-Pro-Pro-Thr-Gln-Phe-Cys]-Asp-NH2 (peptide)
peptide: Hexanoyl-CPPTQFCD-NH2
modifications: linker 1-7 via tMeBn(EuDOTA-PP); also: Eu-DOTA complex
B15: Hex-[Cys(tMeBn(DOTA-AET))-Pro-Pro-Thr-Gln-Phe-Cys]-Asp-NH2 (peptide)
peptide: Hexanoyl-CPPTQFCD-NH2
modifications: linker 1-7 via tMeBn(DOTA-AET)
B16: Hex-[Cys(tMeBn(DOTA-PP))-Pro-Pro-Thr-Gln-Phe-Cys]-Asp-NH2 (peptide)
peptide: Hexanoyl-CPPTQFCD-NH2
modifications: linker 1-7 via tMeBn(DOTA-PP)
B17: Hex-[Cys(tMeBn(DOTA-AET))-Pro-Pro-Thr-Glu-Phe-Cys]-NH2 (peptide)
peptide: Hexanoyl-CPPTEFC-NH2
modifications: linker 1-7 via tMeBn(DOTA-AET)
B18: Hex-[Cys(tMeBn(DOTA-AET))-Pro-Pro-Thr-Gln-Phe-Cys]-asp-NH2 (peptide)
peptide: CPPTQFCD
modifications: N-terminal Hex (hexanoyl); Cys1-Cys7 bridged by tMeBn(DOTA-AET) (thioethers); D-Asp8 (asp); C-terminal amide
B19: Hex-[Cys(3MeBn)-Pro-Pro-Thr-Gln-Phe-Cys]-Asp-Ttds-Ape-NH-DOTA' (peptide)
peptide: Hexanoyl-CPPTQFCD
modifications: linker 1-7 via mXylylene; not fully specified (C-terminus); printed as Hex-[Cys(3MeBn)-Pro-Pro-Thr-Gln-Phe-Cys]-Asp-Ttds-Ape(DOTA)
B20: Hex-[Cys(tMeBn(DOTA-AET))-Pro-Pro-Thr-Gln-Phe-Cys]-Ser-OH (peptide)
peptide: Hexanoyl-CPPTQFCS-OH
modifications: linker 1-7 via tMeBn(DOTA-AET)
B21: Hex-[Cys(3Lut)-Pro-Pro-Thr-Gln-Phe-Cys]-Asp-NH2 (peptide)
peptide: Hexanoyl-CPPTQFCD-NH2
modifications: linker 1-7 via 3Lut
B22: Hex-[Cys(3MeBn)-Pro-Pro-Thr-Ala-Phe-Cys]-NH2 (peptide)
peptide: Hexanoyl-CPPTAFC-NH2
modifications: linker 1-7 via mXylylene
SMILES: CCCCCC(=O)N[C@H]1CSCc2cccc(c2)CSC[C@@H](C(N)=O)NC(=O)[C@H](Cc2ccccc2)NC(=O)[C@H](C)NC(=O)[C@H]([C@@H](C)O)NC(=O)[C@@H]2CCCN2C(=O)[C@@H]2CCCN2C1=O
B23: Hex-[Cys(3MeBn)-Pro-Pro-Ala-Glu-Phe-Cys]-NH2 (peptide)
peptide: Hexanoyl-CPPAEFC-NH2
modifications: linker 1-7 via mXylylene
SMILES: CCCCCC(=O)N[C@H]1CSCc2cccc(c2)CSC[C@@H](C(N)=O)NC(=O)[C@H](Cc2ccccc2)NC(=O)[C@H](CCC(=O)O)NC(=O)[C@H](C)NC(=O)[C@@H]2CCCN2C(=O)[C@@H]2CCCN2C1=O

biological target: T1, human fibroblast activation protein (FAP) on FAP-expressing human WI-38 fibroblasts (human); experiment: competition FACS, WI-38 cells, vs Cy5-labeled compound; A: pIC50 >8.0
T1 sequence (chain, as listed by the source): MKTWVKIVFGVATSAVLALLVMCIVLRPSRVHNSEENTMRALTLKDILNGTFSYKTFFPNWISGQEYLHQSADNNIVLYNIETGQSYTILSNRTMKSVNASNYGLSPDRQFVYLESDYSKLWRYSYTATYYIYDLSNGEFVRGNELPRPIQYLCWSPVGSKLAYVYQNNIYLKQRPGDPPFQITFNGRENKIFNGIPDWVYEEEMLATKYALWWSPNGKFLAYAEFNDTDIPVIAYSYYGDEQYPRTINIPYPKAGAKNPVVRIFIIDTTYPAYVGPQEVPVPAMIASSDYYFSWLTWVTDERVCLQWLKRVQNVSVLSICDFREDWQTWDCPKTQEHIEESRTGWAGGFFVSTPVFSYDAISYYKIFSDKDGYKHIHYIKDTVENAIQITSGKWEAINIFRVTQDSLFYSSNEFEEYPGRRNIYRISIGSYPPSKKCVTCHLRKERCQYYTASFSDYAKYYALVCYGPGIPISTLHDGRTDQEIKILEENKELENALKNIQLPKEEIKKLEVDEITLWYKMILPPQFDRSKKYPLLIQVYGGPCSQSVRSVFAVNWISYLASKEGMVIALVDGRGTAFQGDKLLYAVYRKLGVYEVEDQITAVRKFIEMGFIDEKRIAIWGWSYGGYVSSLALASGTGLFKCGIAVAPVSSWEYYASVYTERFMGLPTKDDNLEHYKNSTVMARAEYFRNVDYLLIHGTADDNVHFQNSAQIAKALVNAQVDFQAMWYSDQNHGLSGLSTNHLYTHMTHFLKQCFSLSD

Row | Binder | pIC50 Category (FACS) [pIC50]
1 | B1 | > 8
2 | B2 | > 8
3 | B3 | > 8
4 | B4 | > 8
5 | B5 | > 8
6 | B6 | > 8
7 | B7 | > 8
8 | B8 | > 8
9 | B9 | > 8
10 | B10 | > 8
11 | B11 | > 8
12 | B12 | > 8
13 | B13 | > 8
14 | B14 | > 8
15 | B15 | > 8
16 | B16 | > 8
17 | B17 | > 8
18 | B18 | > 8
19 | B19 | > 8
20 | B20 | > 8
21 | B21 | > 8

biological target: T1, human fibroblast activation protein …; experiment: competition FACS, WI-38 cells, vs Cy5-labeled compound; D: pIC50 ≤6.0

Row | Binder | pIC50 Category (FACS) [pIC50]
22 | B22 | ≤ 6
23 | B23 | ≤ 6
